Source: paper PMC8748815, “The N-terminal tail of the hydrophobin SC16 is not required for rodlet formation” (Scientific Reports, 2022)

Biological target: the molecule itself
Test: thioflavin T fluorescence; self-assembly during agitation (air:water interface), 50 μg/mL protein, 20 μM ThT, multicomponent buffer pH 8.5 with 1 M NaCl (SC16ΔN also at pH 5.5-8.5 with 10 mM-1 M NaCl), 6 replicates

B1: SC16 with 13 residues from the N-terminal tail removed (residues 31Lys-114Leu of SC16) (domain or fragment, Schizophyllum commune, UniProt D8QCG9 31-114, looked up)
chain: KSCSSGPVYCCNKTEDHLDKGTTALLGLLNIKIGDLKDLVGLNCSPLSVIGVGGNSCSAQTVCCTNTYQHGLVNVGCTPINIGL
notes: class IB hydrophobin SC16, product of the hyd1 gene of Schizophyllum commune, NCBI ID EFI94929, residues 31Lys-114Leu; Expressed as H6-GB1-SC16ΔN with a thrombin site; also called SC16ΔN; not shown: His6, N-terminal, cleaved; B1 domain of protein G (GB1), N-terminal, cleaved
B1: binds.

B2: SC16 with the N-terminal signal sequence removed (18Thr-114Leu of the hyd1 gene of S. commune) (natural protein, Schizophyllum commune, UniProt D8QCG9 18-114, looked up)
chain: TAVPRDVNGGTPPKSCSSGPVYCCNKTEDHLDKGTTALLGLLNIKIGDLKDLVGLNCSPLSVIGVGGNSCSAQTVCCTNTYQHGLVNVGCTPINIGL
notes: Expressed as H6-GB1-SC16 with a thrombin site; also called hydrophobin SC16; not shown: His6, N-terminal, cleaved; B1 domain of protein G (GB1), N-terminal, cleaved
B2: binds.
